In the nanobody polyreactivity screen of Harvey et al. (2022):

test: yeast display, Sf9 membrane polyspecificity reagent, FACS + sequencing; frameworks hold sequencing errors
Procedure, shortened: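 A synthetic nanobody library was expressed on Saccharomyces cerevisiae BJ5465 by galactose induction for 36–48 hours. The library was stained for 1 hour at 4 °C with 10% biotinylated, detergent-solubilized Sf9 membrane reagent and enriched with streptavidin microbeads before FACS. Low and high (top ~1%) gates were set on anti-HA fluorescence for expression and streptavidin fluorescence for reagent binding, and each polyreactivity label reflects the gate of origin.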

Sequence | polyreactivity (PSR sort gate)
QVQLVDSAGGLVQSGGSQRLSCAASGSIFHVYPMGCYRQAPGKERELVAAIRRRGGSTYYADSVKGRFTISRDTAKNTVYLQMNSLKPEDTAVYYCAARSVGFYRYDYWGQGTQVTVSS | low polyreactivity
QVQLVDSAVGLVQAGGSLRLSCPASGSIISFYTMGWYRQAPGKERDLVASSTTYADSVKGRFTISRDNAKNTVYLQMNSLKPEVTAVYYCATRHPARRDYWGQGTQVTVSS | low polyreactivity
QVQLVDSGGALVQAGGSLRISCAASGYIFSYKAMGWYRQAPGKERELVAAITSGGSTNYADSVKGRFTISRDNAKNTVYLQMKSLKPEDTAVYYCAAERGDTAYRKYDYWGQGTQVTVSS | low polyreactivity
QVQLVDSGGGLDQAGGSLRLICDASGSIFWWNAMGWYRQAPGKETELVAAINWSTGRTYYADSVKGRFTISRDNAKNTVYLQMNSLKPEDTAVYYCGADVWTPYLISLKSGYDYWGQGTQLTVSS | low polyreactivity
QVQLVDSGGGLDQAGGSLRLSCAASGFTFGDNAMGCYRQAPGKERELVARITGDGSTYYADSVKGRFTISRDNAKNTVYLQMNSLKPEDTAFFYCAADYSPRYTQIEYGYWGQGTQVTVSS | low polyreactivity
QVQLVDSGGGLDQAGGSLRLSCAASGLTFAYNTMGWYRQAPGKERELVADISRSAGSTYYADSVKVRFTISRDNAKNTVFLQMNSLKPDDTAVYYCNAAPYYVLYLLWSSNTYDYWGQGTQVTVSS | high polyreactivity
QVQLVDSGGGLDQAGGSLRLSCAASGRIFGLYAMVWYRTAPGKEKELVAHIDVSDGSTYYADSVKGRFTISLDTAKNTVYLQMNRLKPEDTAVYYCNAEDSSRWYDWYLHDYWGQGTQVTVSS | high polyreactivity
QVQLVDSGGGLGQAGGSLRLSCAASGSIFTTNAMGCYRHAPGKERELVAASSSRGGSTYYADSVKGRFTISRDNAKNTVYLQMNSLKPEDTAVYYCAARYRWPIPGTNYEYWGQGTQVTVSS | low polyreactivity
QVQLVDSGGGLVHAGGSLRLSCAASGSTLIGNAMGWYRQAPWKERELVARISLRGGRTYYADSVKGRFTISRDNAKHTVYLQMNSLKPEDTAVYYCNRGGFSRYYYWGQGTQVTVSS | low polyreactivity
QVQLVDSGGGLVQAEGSLRLSCAPSGIIFGGYAMGWYIPAPGKERELVAAISRSGGSTYYADSVKGRFTISRDNAKNTVYLQMNSLKPEDTAVYYCAADGGAYEYDYWGQGTQVTVSS | high polyreactivity
QVQLVDSGGGLVQAGASLPLSCAASGATFYIYARGWNIQAPGKERELVAANTWSGGRTFYADSVKGRFTMSRDNAKNTDYLQMNSLKPEDTAVYYCANRVRTGSVGNFNYWGQGTQVNVSS | high polyreactivity
QVQLVDSGGGLVQAGGSLGLSCAASGSIVKYYAMGWYRQAPGKEREVVAAISSIGGRPYYADSVKGRFTISRDNAKNTVYLQRNSLKPEDTSVFYCARRFRRTGESEYEYWGQGTQVTVSS | high polyreactivity
QVQLVDSGGGLVQAGGSLLLSCAASGSTINHKDMGLYRQAPGKERELVAAISWSGGSTTYADSVKGRFTISRDNAKNTVYLQMNSLKPEDTAVYYCAADWYYWGFIFDYWGQGTQVTVSS | high polyreactivity
QVQLVDSGGGLVQAGGSLRISCAATGSIFGPNAMGWNRQPPGKERELVAAISRRGGTTYYADSVKGRFTISRDNSKNTFYLQMNSLKPEDTAVYYCATVLYKAYNDYGYWGQGTQVTVSS | high polyreactivity
QVQLVDSGGGLVQAGGSLRLICAASGSISSYYAMVWYRQAPGKERELVAAITSGGRTYYADSVKGRFTISRDNAKNTVYLQMNSLKPEDTAVYYCNARTARNPIKGRASYYWGQGTQVTVSS | high polyreactivity
QVQLVDSGGGLVQAGGSLRLRCAASGSTFGIYAMGWYRQAPGKERELVAAISWRGGRTYYADSVKGRFTITRDNAKNNVYFQMNSLKPEDTAVYYCAADYRYLWEGYDYWGQGTQVTVSS | low polyreactivity
